Biological target: Filgrastim (recombinant human granulocyte-colony stimulating factor from Escherichia coli) (human) (UniProt P09919)
Experiment: SEC; HP-SEC, TSKgel G3000SWXL, 50 mM ammonium hydrogen carbonate pH 7.0, column 30°C; expired PDgrastim diluted to 0.25 mg/ml in 100 mM sodium acetate pH 5.0; dimer and oligomer assigned by retention relative to the monomer (Ph. Eur.)

## Filgrastim (recombinant human granulocyte-colony stimulating factor from Escherichia coli) (from UniProt P09919-2 31-204) (ligand)
  relative peak area of dimer: 3.6%
  relative peak area of oligomer: 0.1%
  stoichiometry N: 2

Reference: publication PMC6182392
